# Laboratory results from patent publication US20240115720A1, “ANTIBODY-PYRROLOBENZODIAZEPINE DERIVATIVE CONJUGATE” (MEMORIAL SLOAN KETTERING CANCER CENTER, priority 2021, published 2024).
# Assays:
# [1] = system: DLL3-positive human small cell lung cancer cell line NCI-H510A; test: In vivo antitumor effect, NCI-H510A xenograft (Example 17-3); details: BALB/c nude mice, 0.2 mg/kg intravenous, single dose on Day 15, FIG. 21
# Description: The antitumor effects of the antibody-drug conjugates were evaluated using animal models derived from immunodeficient mice by the inoculation of DLL3-positive human tumor cell line cells. 4- to 5-week-old BALB/c nude mice (CAnN. Cg-Foxn1 [nu]/CrlCrlj [Foxn1nu/Foxn1nu], Charles River Laboratories Japan inc.) were acclimatized for 3 days or longer under SPF conditions before use in the experiment. The mice were fed with a sterilized solid diet (FR-2, Funabashi Farms Co., Ltd) and given sterilized tap water (which had been prepared by adding a 5 to 15 ppm sodium hypochlorite solution to tap water). The long diameter and short diameter of the inoculated tumor were measured twice a week using electronic digital calipers (CD-15CX, Mitutoyo Corp.), and the volume of the tumor was then calculated according to the following expression.
# Tumor volume (mm^3=½×Long diameter (mm)×[Short diameter (mm)]^2
# Each antibody-drug conjugate was diluted with ABS buffer (10 mM acetate buffer, 5% sorbitol, pH 5.5) (Nacalai Tesque, Inc.), and the dilution was intravenously administered at a dose shown in each study to the tail of each mouse. ABS buffer was administered in the same manner as above to a control group (vehicle group). Six mice per group were used in the experiment. The group with the over 3000 mm^3 estimated tumor volume were euthanized at that time. […]
# [2] = system: DLL3-positive human small cell lung cancer cell line NCI-H510A; test: In vivo antitumor effect, NCI-H510A xenograft (Example 22-1); details: nude mice, 0.2 mg/kg intravenous, single dose, FIG. 26
# Text: (§1) Substantially the same protocol as in Example 17 was used.
# (§2) The DLL3-positive human small cell lung cancer cell line NCI-H510A (ATCC) was suspended in Matrigel (Corning Inc.), and the cell suspension was subcutaneously inoculated at a dose of 2.3×10^6 cells to the right flank region of each female nude mouse. After the tumors were established, the mice were randomly grouped (6 mice per group). On the day of grouping, each of the 2 antibody-drug conjugates (H2-C8-A-3-Conjugate, H10-O18-A-3-Conjugate), the reference anti-DLL3 antibody-Conjugate (SC16LD6.5), or anti-LPS antibody-Conjugate was intravenously administered at a dose of 0.2 mg/kg to the tail of each mouse. The abscissa depicts the days after administration, and the ordinate depicts estimated tumor volume. The error range depicts a SE value.
# [3] = system: DLL3-positive human small cell lung cancer cell line NCI-H82; test: In vivo antitumor effect, NCI-H82 xenograft (Example 22-3); details: nude mice, 0.4 mg/kg intravenous, single dose, FIG. 28
# Text: as §1
# as §2, with “NCI-H82” for “NCI-H510A”, “1×10^6” for “2.3×10^6”, “(SC16LD6.5)” for “(SC16LD6.5),”, “0.4” for “0.2”
molecule,measurement,setting,value
"SC16LD6.5: anti-DLL3 ADC: antibody hSC16.56 (SC16) conjugated with drug linker SG3249 by maleimide conjugation (conjugate, chains of the INN, looked up, SG3249 PBD drug-linker (tesirine), anti-DLL3 ADC: antibody hSC16.56 (SC16) conjugated with drug linker SG3249 by maleimide conjugation) VH: QVQLVQSGAEVKKPGASVKVSCKASGYTFTNYGMNWVRQAPGQGLEWMGWINTYTGEPTYADDFKGRVTMTTDTSTSTAYMELRSLRSDDTAVYYCARIGDSSPSDYWGQGTLVTVSS VL: EIVMTQSPATLSVSPGERATLSCKASQSVSNDVVWYQQKPGQAPRLLIYYASNRYTGIPARFSGSGSGTEFTLTISSLQSEDFAVYYCQQDYTSPWTFGQGTKLEIK",antitumor effect (estimated tumor volume),[1],some tumor growth inhibition without tumor regression effect
same,antitumor effect (estimated tumor volume),[2],some tumor growth inhibition without tumor regression effect
same,antitumor effect (estimated tumor volume),[3],some tumor growth inhibition without tumor regression effect
